Test results as given in the nanobody polyreactivity screen of Harvey et al. (2022).

Experiment: yeast display, Sf9 membrane polyspecificity reagent, FACS + sequencing; frameworks hold sequencing errors
How it was run: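 Galactose-induced (36–48 hours) yeast carrying a synthetic nanobody display library were exposed to 10% biotinylated, detergent-solubilized Sf9 membrane reagent at 4 °C for 1 hour. FACS followed streptavidin microbead enrichment, using low and high (top ~1%) gates for expression (anti-HA) and reagent binding (streptavidin). Colony PCR, MiSeq 2 × 250 sequencing and CDR-length filtering followed. Labels for polyreactivity reflect the gate of origin.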

| Sequence | polyreactivity (PSR sort gate) |
| --- | --- |
| QVQLVESGGGLVQAGGSLRLSCAASGIFGWYAMGWYRQAPGKEREFVATINWSGGRTYYADSVKGRFTISRDNAKNTVYLQMNSLKPEDTAVYYCAAENYASEYDYWGQGTQVTVSS | low polyreactivity |
| QVQLVESGGGLVQAGGSLRLSCAASGIFSIYAMGRYRQAPGKERELVAAITSGGGRTYYADSVKGRFTISRDNAKNTVYLQMNSLKPEDTAVYYCARVQRGDYDYWGQGTQVTVTS | high polyreactivity |
| QVQLVESGGGLVQAGGSLRLSCAASGIFSRYAIGWYRQAPGKERELVAAISSGDSTNYADSVKGRFTISRDNAKNTVYLQMNSLKPEDTAVYYCATERSHLATGQGYYYVQTFYYWGQGTQVTVSS | low polyreactivity |
| QVQLVESGGGLVQAGGSLRLSCAASGIFSRYAMGWYRQAPGKERELVAAISSGGSTYYADSVKGRFTISRDNAKNTVYLQMNSLKPEDTAVYYCAVKQRDKFAGGRNDYWGQGTQVTVSS | high polyreactivity |
| QVQLVESGGGLVQAGGSLRLSCAASGIFTYNAMGWYRQAPGKERELVASITRGGSTNYADSVKGRFTISLDNAKNTVYLQRNSLKPEDTAVYYCAARVRVYSGWLYNYWGQGTQVTVSS | high polyreactivity |
| QVQLVESGGGLVQAGGSLRLSCAASGIFYRNAMGWYRQAPGKERELVAAISWSGGSTYYADSVKGRFTISRDNAKNSVYLQMNSLKPEDTAFYYCAAVGGRYPSNVVGYYYWGQGTQVTVSS | high polyreactivity |
| QVQLVESGGGLVQAGGSLRLSCAASGIFYYNAMGWNIQAPGKERELVAAISYSGGRTYYADSVKGRFTISRDNAKNTVYLQMNSLKPEDTAVYYCNAAARYGRLGGDYWGQGTQVTVSS | high polyreactivity |
| QVQLVESGGGLVQAGGSLRLSCAASGIGHNAMGWYRQAPGKERELVAAISSSGGRTYYADSVKGRFTISRDNAKNTVYLQMNSLKPEDTAVYYCARRAVYGIFDYWGQGTQVTVSS | high polyreactivity |
| QVQLVESGGGLVQAGGSLRLSCAASGIIFAANAMGWYRQAPGKERELVAAISWSGTSTYYADSVKGRFTISRDNAKNTVYLQMNSLNPEDTAVYYCAVDYYLWSGYSYLYEFEYWGQGTQVTVSS | high polyreactivity |
| QVQLVESGGGLVQAGGSLRLSCAASGIIFAANTMGWYRQAPGKDREFVAAISKRGGTTYYADSVKGRFTISRDNAKNTVYLQMNSLKPEDSAVYYCNRRNGWSRGEYWGQGTQVTVSS | high polyreactivity |
| QVQLVESGGGLVQAGGSLRLSCAASGIIFAAYVMGWYRQAPGKERELVAAISKSGGRTYYADSVKGRFTISRDNAKNTVYLQMNSLKREDTAVYYCAASYTYYSIGLGTDVRYGYWGEGTQVTVSS | high polyreactivity |
| QVQLVESGGGLVQAGGSLRLSCAASGIIFAGNAMGWYRQAPGKERELVAAITRSTGSTYYADSVKGRFTISRDNAKNTVYLLMNSLKPEDTEVYYCNAGHFAHHHGYYRSKYDYWGQGTQVTVSS | low polyreactivity |
| QVQLVESGGGLVQAGGSLRLSCAASGIIFASYPMGWYRQAPGKESELVADINVTGGTTYYADTVKGRFTISRDNAKNTVYLQMNSLKPEDTAVYYCAARQSIFYSWTGVEYYYWGQGTQVTVSS | low polyreactivity |
| QVQLVESGGGLVQAGGSLRLSCAASGIIFAYNAMGWYRQAPGKERELVAAISVIAGTTYYADSVKGRFTISRDNAKNTVYLQMNSLKPEDTAVYYCAVDSVQYGGGYERLHELYYWGQGTQVTVSS | low polyreactivity |
| QVQLVESGGGLVQAGGSLRLSCAASGIIFAYNAMGWYRQAPGKERELVATITDSGGSTSYADSVKGRFTISRDNAKNTVYLQMNSLKPEDTAVYYCAVLPVYWYWRNYVYLSGYDYWGQGTQVTVSS | low polyreactivity |
| QVQLVESGGGLVQAGGSLRLSCAASGIIFAYNAMGWYRQAPGKEWELVAGITRNDGSTNYADSVKGRFTISRYNAMNTVYLQMNSLKPEDTAVYYCATGGWRWQRNPSYDYWGQGNQVTVSS | low polyreactivity |
| QVQLVESGGGLVQAGGSLRLSCAASGIIFAYYAMGWYRQAPGKERELVAAISWRGGSTYYADSVKGRFTISRDYAKNTVYLQMNSLKPEDTAVYYCAAAYLKKPYDYWGQGTQVTVSS | high polyreactivity |
